Source: article PMC8024259, “The Pah-R261Q mouse reveals oxidative stress associated with amyloid-like hepatic aggregation of mutant phenylalanine hydroxylase” (Nature Communications, 2021)
Positions count from the first letter of the chain named. Numbers in names are those of the source.

B1: Recombinant human WT-PAH (phenylalanine hydroxylase) (enzyme, UniProt P00439 1-452, looked up)
chain: MSTAVLENPGLGRKLSDFGQETSYIEDNCNQNGAISLIFSLKEEVGALAKVLRLFEENDVNLTHIESRPSRLKKDEYEFFTHLDKRSLPALTNIIKILRHDIGATVHELSRDKKKDTVPWFPRTIQELDRFANQILSYGAELDADHPGFKDPVYRARRKQFADIAYNYRHGQPIPRVEYMEEEKKTWGTVFKTLKSLYKTHACYEYNHIFPLLEKYCGFHEDNIPQLEDVSQFLQTCTGFRLRPVAGLLSSRDFLGGLAFRVFHCTQYIRHGSKPMYTPEPDICHELLGHVPLFSDRSFAQFSQEIGLASLGAPDEYIEKLATIYWFTVEFGLCKQGDSIKAYGAGLLSSFGELQYCLSEKPKLLPLELEKTAIQNYTVTEFQPLYYVAESFNDAKEKVRNFAATIPRPFSVRYDPYTQRIEVLDNTQQLKILADSINSEIGILCSALQKIK
notes: phenylalanine hydroxylase, human, expressed from pMAL as MBP-(pep)xa-PAH and cleaved with Factor Xa; source: E. coli TB1, purified (amylose resin, Factor Xa cleavage, SEC); not shown: MBP, N-terminal, cleaved
B2: Recombinant human p.R261Q-PAH (phenylalanine hydroxylase, p.Arg261Gln variant) (enzyme, UniProt P00439 1-452, looked up)
chain: B1 chain with R261Q
notes: phenylalanine hydroxylase, human, PKU patient variant p.R261Q, expressed from pMAL as MBP-(pep)xa-PAH and cleaved with Factor Xa; Variant that occurs in PKU patients (c.782G>A); also called p.PAH-R261Q; source: E. coli TB1, purified (amylose resin, Factor Xa cleavage, SEC); not shown: MBP, N-terminal, cleaved

Target: the molecule itself
Experiment: SEC; preparative isolation of the tetramer after Factor Xa cleavage; Superdex HiLoad 16/600 200, 20 mM Hepes pH 7, 200 mM NaCl

Row | Protein | stoichiometry N
1 | B1 | 4
2 | B2 | 4
